± gives the standard deviation of the averaged measurements.
Tested on: Saccharomyces cerevisiae
Assay: protein stability index of tFT-peptide fusion (C-terminal peptide) (PSI (0-1 scale)); higher = more stable (slower turnover)
Conditions: genetic background: doa10 deletion; temperature: 30 C
Procedure: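 MPS profiling in S. cerevisiae of the tFT-X12 degron library: putative degron peptides plus stable controls, 12 aa, fused to the C-terminus of a sfGFP-mCherry timer. Cells are FACS-sorted into 8 mCherry/sfGFP bins and deep-sequenced. PSI runs from 0 (unstable) to 1 (stable). Backgrounds are wild type, das1Δ and doa10Δ at 30 °C, and wild type, das1Δ, cdc34-1 and cdc53-1 at 37 °C; 2-3 technical replicates each.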
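Also: PSI is a weighted mean of sequencing reads over stability bins, variants kept only with over 10 reads, mCherry proximal and sfGFP distal, peptide attached via GGGS linker.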

| Sequence | protein stability index |
| --- | --- |
| CVGLYCLFVLLG | 0.172 ± 0.0049 |
| CVISLVTAVRLF | 0.405 ± 0.028 |
| DDVRFLLWGLCC | 0.183 ± 0.0027 |
| DQPLWIGVLAYC | 0.272 ± 0.0047 |
| DRRYIISLIYIL | 0.0892 ± 0.014 |
| DSGMLDFLLMAW | 0.421 ± 0.011 |
| DSTLLYRPPSPA | 0.651 ± 0.021 |
| DVVVIFGILCYC | 0.125 ± 0.014 |
| DYRCWCAILVSS | 0.146 ± 0.013 |
| DYSVIPSLALLP | 0.669 ± 0.022 |
| ECLRLTTKKKIN | 0.133 ± 0.0031 |
| EDRKRNKERRWT | 0.305 ± 0.0042 |
| EFWWPFDRRGVI | 0.721 ± 0.029 |
| EKKRERQKGEME | 0.627 ± 0.026 |
| ETQKEKRENAKP | 0.6492 ± 0.0039 |
| EVGFHRRWVALS | 0.114 ± 0.02 |
| EWGLGEIVVKVA | 0.138 ± 0.0032 |
| FAFPTPPPLLFD | 0.667 ± 0.0073 |
| FCGWLGVYLVKG | 0.481 ± 0.035 |
| FCSFSWFLFLRS | 0.599 ± 0.01 |
| FCVLLFCAVSDL | 0.212 ± 0.0092 |
| FCVVFFLSLVFL | 0.4225 ± 0.0026 |
| FFDLSLYSLCLC | 0.229 ± 0.009 |
| FFFFPVYFIFVV | 0.259 ± 0.01 |
| FFFFSMFSFFIP | 0.438 ± 0.013 |
| FFFVLVSGWWGV | 0.205 ± 0.022 |

| Sequence | protein stability index |
| --- | --- |
| FFLDRLVIRLIA | 0.0576 ± 0.024 |
| FFLFFLSFGCFL | 0.4551 ± 0.0028 |
| FFLKPVPSLFLC | 0.0796 ± 0.014 |
| FFLVLWSSLLSP | 0.3584 ± 0.0021 |
| FFRPWRLVGCLV | 0.189 ± 0.017 |
| FFSFTVLVSYGF | 0.186 ± 0.0095 |
| FFSLMFVFLTVF | 0.192 ± 0.0063 |
| FFSLRRAVTVSA | 0.168 ± 0.0042 |
| FFSPFFFFLFRL | 0.483 ± 0.019 |
| FFVISVVLCLLV | 0.325 ± 0.0033 |
| FFVRSWWVELLF | 0.296 ± 0.0038 |
| FFYRFQDLPRIC | 0.191 ± 0.018 |
| FGFFLFIFFFFR | 0.333 ± 0.0034 |
| FGFFRLVIVCFR | 0.176 ± 0.017 |
| FGFWGVVSCCNA | 0.459 ± 0.01 |
| FGPRLLRVMRLL | 0.128 ± 0.017 |
| FGVLFFVFVFVC | 0.112 ± 0.021 |
| FGVLLVWWYGLF | 0.1894 ± 0.0014 |
| FGVSLFLPLSVV | 0.281 ± 0.0048 |
| FIFYYTVLLLCR | 0.13 ± 0.0087 |
| FIICAASWFFLG | 0.109 ± 0.014 |
| FILATGKGRWVV | 0.266 ± 0.0031 |
| FILSLSFVFSRP | 0.452 ± 0.039 |
| FIRLTFLRLSCI | 0.183 ± 0.015 |
| FLASLCFFPLLC | 0.496 ± 0.024 |
| FLAWSVGILCRV | 0.213 ± 0.0026 |

| Sequence | protein stability index |
| --- | --- |
| FLCLFFLAVIKL | 0.502 ± 0.007 |
| FLFLLLFLLLCC | 0.349 ± 0.011 |
| FLFPFLSVLFLL | 0.176 ± 0.0088 |
| FLFSVVFFFFSL | 0.322 ± 0.011 |
| FLLEVFVLGRTL | 0.402 ± 0.032 |
| FLLFSFFFFFFF | 0.489 ± 0.037 |
| FLLPILSSSPVL | 0.685 ± 0.019 |
| FLRLSFLIFPLH | 0.396 ± 0.026 |
| FLSCSRRPLRCW | 0.273 ± 0.0051 |
| FMPFSLLALFVW | 0.2321 ± 0.0021 |
| FNLTCLLISFFN | 0.368 ± 0.005 |
| FPCIFFFCLFIL | 0.31 ± 0.013 |
| FPLGMFWVCFFV | 0.181 ± 0.015 |
| FPYARHLSVLLL | 0.371 ± 0.0079 |
| FRFSCLFSLFLS | 0.169 ± 0.0091 |
| FRLFSLWFCWVR | 0.365 ± 0.013 |
| FRVSAFFLPFLS | 0.226 ± 0.011 |
| FSFLLYASLVTH | 0.322 ± 0.0038 |
| FSGFPLTLSPPL | 0.685 ± 0.0098 |
| FSVLLLANFCFF | 0.363 ± 0.016 |
| FSVLRLVIVSLL | 0.0564 ± 0.004 |
| FSVSYFRLVRLC | 0.0722 ± 0.003 |
| FTNLDYTKEKNN | 0.134 ± 0.012 |
| FVIVSSCIGYAL | 0.4365 ± 0.0039 |
| FVLLSVCFFGCL | 0.301 ± 0.0069 |
| FVMLSFLVSSLP | 0.3038 ± 0.0018 |

Same assay, conditions: genetic background: wild type; temperature: 30 C

| Sequence | protein stability index |
| --- | --- |
| CVGLYCLFVLLG | 0.161 ± 0.018 |
| CVISLVTAVRLF | 0.426 ± 0.026 |
| DDVRFLLWGLCC | 0.218 ± 0.019 |
| DQPLWIGVLAYC | 0.325 ± 0.013 |
| DRRYIISLIYIL | 0.0874 ± 0.015 |
| DSGMLDFLLMAW | 0.451 ± 0.013 |
| DSTLLYRPPSPA | 0.637 ± 0.02 |
| DVVVIFGILCYC | 0.15 ± 0.032 |
| DYRCWCAILVSS | 0.172 ± 0.032 |
| DYSVIPSLALLP | 0.673 ± 0.0088 |
| ECLRLTTKKKIN | 0.146 ± 0.039 |
| EDRKRNKERRWT | 0.303 ± 0.027 |
| EFWWPFDRRGVI | 0.7117 ± 0.0043 |
| EKKRERQKGEME | 0.635 ± 0.014 |
| ETQKEKRENAKP | 0.623 ± 0.016 |
| EVGFHRRWVALS | 0.141 ± 0.016 |
| EWGLGEIVVKVA | 0.162 ± 0.013 |
| FAFPTPPPLLFD | 0.676 ± 0.0095 |
| FCGWLGVYLVKG | 0.49 ± 0.015 |
| FCSFSWFLFLRS | 0.337 ± 0.016 |
| FCVLLFCAVSDL | 0.24 ± 0.036 |
| FCVVFFLSLVFL | 0.386 ± 0.0062 |
| FFDLSLYSLCLC | 0.271 ± 0.029 |
| FFFFPVYFIFVV | 0.232 ± 0.016 |
| FFFFSMFSFFIP | 0.466 ± 0.031 |
| FFFVLVSGWWGV | 0.221 ± 0.021 |

| Sequence | protein stability index |
| --- | --- |
| FFLDRLVIRLIA | 0.0715 ± 0.011 |
| FFLFFLSFGCFL | 0.459 ± 0.032 |
| FFLKPVPSLFLC | 0.0677 ± 0.0064 |
| FFLVLWSSLLSP | 0.386 ± 0.033 |
| FFRPWRLVGCLV | 0.215 ± 0.018 |
| FFSFTVLVSYGF | 0.187 ± 0.023 |
| FFSLMFVFLTVF | 0.164 ± 0.02 |
| FFSLRRAVTVSA | 0.2 ± 0.029 |
| FFSPFFFFLFRL | 0.351 ± 0.0064 |
| FFVISVVLCLLV | 0.344 ± 0.019 |
| FFVRSWWVELLF | 0.335 ± 0.031 |
| FFYRFQDLPRIC | 0.231 ± 0.035 |
| FGFFLFIFFFFR | 0.276 ± 0.039 |
| FGFFRLVIVCFR | 0.172 ± 0.019 |
| FGFWGVVSCCNA | 0.477 ± 0.011 |
| FGPRLLRVMRLL | 0.157 ± 0.044 |
| FGVLFFVFVFVC | 0.129 ± 0.022 |
| FGVLLVWWYGLF | 0.204 ± 0.016 |
| FGVSLFLPLSVV | 0.308 ± 0.023 |
| FIFYYTVLLLCR | 0.115 ± 0.019 |
| FIICAASWFFLG | 0.127 ± 0.016 |
| FILATGKGRWVV | 0.306 ± 0.029 |
| FILSLSFVFSRP | 0.441 ± 0.046 |
| FIRLTFLRLSCI | 0.199 ± 0.0096 |
| FLASLCFFPLLC | 0.372 ± 0.02 |
| FLAWSVGILCRV | 0.224 ± 0.041 |

| Sequence | protein stability index |
| --- | --- |
| FLCLFFLAVIKL | 0.309 ± 0.037 |
| FLFLLLFLLLCC | 0.318 ± 0.033 |
| FLFPFLSVLFLL | 0.176 ± 0.0083 |
| FLFSVVFFFFSL | 0.35 ± 0.025 |
| FLLEVFVLGRTL | 0.432 ± 0.022 |
| FLLFSFFFFFFF | 0.384 ± 0.021 |
| FLLPILSSSPVL | 0.667 ± 0.025 |
| FLRLSFLIFPLH | 0.409 ± 0.023 |
| FLSCSRRPLRCW | 0.301 ± 0.032 |
| FMPFSLLALFVW | 0.241 ± 0.041 |
| FNLTCLLISFFN | 0.417 ± 0.015 |
| FPCIFFFCLFIL | 0.203 ± 0.021 |
| FPLGMFWVCFFV | 0.207 ± 0.023 |
| FPYARHLSVLLL | 0.392 ± 0.025 |
| FRFSCLFSLFLS | 0.143 ± 0.036 |
| FRLFSLWFCWVR | 0.212 ± 0.034 |
| FRVSAFFLPFLS | 0.246 ± 0.022 |
| FSFLLYASLVTH | 0.297 ± 0.013 |
| FSGFPLTLSPPL | 0.679 ± 0.019 |
| FSVLLLANFCFF | 0.407 ± 0.043 |
| FSVLRLVIVSLL | 0.0846 ± 0.04 |
| FSVSYFRLVRLC | 0.0819 ± 0.038 |
| FTNLDYTKEKNN | 0.146 ± 0.025 |
| FVIVSSCIGYAL | 0.46 ± 0.025 |
| FVLLSVCFFGCL | 0.327 ± 0.004 |
| FVMLSFLVSSLP | 0.34 ± 0.017 |
